Measured values from patent US20160297884A1 (Pfizer, published 2016).
Where a chain is given by its changes, count along the chain named.

B1: A02_Rd4_6nM_C16 (antibody, V domains shown)
VH: EVQLLESGGGLVQPGGSLRLSCAASGFTFSSYAMNWVRQAPGKGLEWVSAISDFGGSTYYADSVKGRFTISRDNSKNTLYLQMNSLRAEDTAVYYCARYWPMDIWGQGTLVTVSS
VL: EIVLTQSPGTLSLSPGERATLSCRASQSVSDLYLAWYQQKPGQAPRLLMYDASIRATGIPDRFSGSGSGTDFTLTISRLEPEDFAVYYCQQYQTWPLTFGQGTKVEIK
notes: Tested as IgG; also called P5AC16
B2: L3.PY/L1.PS/H2.QR (antibody, V domains shown)
VH: EVQLLESGGGLVQPGGSLRLSCAASGFTFGSYAMTWVRQAPGKGLEWVSAISGSGGNTFYADQRKGRFTISRDNSKNTLYLQMNSLRAEDTAVYYCARVSPIASGMDYWGQGTLVTVSS
VL: EIVLTQSPGTLSLSPGERATLSCRASQSVSSSYPSWYQQKPGQAPRLLIYGASSRATGIPDRFSGSGSGTDFTLTISRLEPEDFAVYYCQHYPYPPSFTFGQGTKVEIK
notes: IgG
B3: L3.PY/H3.TAQ (antibody, V domains shown)
VH: B2 VH with Q63S, R64V, A97T, S104A, G105Q
VL: B2 VL with P34L, S35A
notes: Tested as IgG

What was measured:
[1] = molecular target: BCMA (analyte of Table 4A); experiment: SPR (Bio-Rad ProteOn XPR36), IgG amine-coupled, BCMA as analyte, kinetic titration; species of BCMA and temperature not stated for Table 4A
Method: All experiments were performed on a Bio-Rad Proteon XPR36 surface Plasmon resonance biosensor (Bio-Rad, Hercules, Calif.). […] The analysis temperature for the immobilization was 25° C. and the running buffer was HBS-T+(10 mM HEPES, 150 mM NaCl, 0.05% Tween-20, pH 7.4). Channels were activated in the analyte (horizontal) direction by injecting a mixture of 1 mM ECD and 0.25 mM NHS for 3 minutes at a flow rate of 30 μL/min. IgGs were immobilized on the activated spots by injecting them in the ligand (vertical) direction at 20 μg/mL in 10 mM Acetate pH 4.5 buffer for 1.5 minutes at […]. The activated surfaces were blocked by injecting 1M ethanolamine, pH 8.5 in the analyte direction for 3 minutes at 30 μL/min.
The analysis temperature for the BCMA binding analysis was 37° C. or 25° C. in a running buffer of HBS-T+, supplemented with 1 mg/mL BSA. A kinetic titration method was employed for the interaction analysis as described in Abdiche, et al. Human BCMA (huBCMA) or cynomolgus monkey BCMA (cyBCMA) analyte was injected in the analyte direction using a series of injections from low to high concentration. The concentrations used were 0.08 nM, 0.4 nM, 2 nM, 10 nM and 50 nM (a 5-membered series, with a 5-fold dilution factor and top concentration of 50 nM). The association time for a given analyte dilution was two minutes. Immediately after the 50 nM BCMA injection, dissociation was monitored for 2 hours.
The sensorgrams were double-referenced and fit to a 1:1 Langmuir with mass transport kinetic titration model in BIAevaluation Software version 4.1.1 (GE Lifesciences, Piscataway, N.J.).

[2] = molecular target: T1, Human BCMA (human, UniProt Q02223 1-54, limits assumed); experiment: SPR, IgG immobilised, 37 C
T1 construct: Soluble analyte in SPR; construct not described; also called huBCMA; B-cell maturation antigen
T1 sequence (looked up): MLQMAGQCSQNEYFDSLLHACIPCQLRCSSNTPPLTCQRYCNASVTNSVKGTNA
How it was run: (§1)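 IgGs were amine-coupled (EDC/NHS, 20 μg/mL in acetate pH 4.5) and BCMA, human or cynomolgus, was injected by kinetic titration at 0.08, 0.4, 2, 10 and 50 nM, 2 min each, in HBS-T+ pH 7.4 with 1 mg/mL BSA at 37° C or 25° C. Dissociation was followed for 2 hours.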

[3] = molecular target: T2, cynomolgus monkey BCMA (cynomolgus monkey, UniProt A0A2K5UD97 1-53); experiment: SPR, IgG immobilised, 37 C
T2 construct: Soluble analyte in SPR; construct not described; also called cyBCMA; Cyno BCMA
How it was run: as §1

[4] = molecular target: T1, Human BCMA; experiment: SPR, IgG immobilised, 37 C; huBCMA @25° C.

Sequence of BCMA (analyte of Table 4A) (Q02223 whole entry, the tested form may be a part): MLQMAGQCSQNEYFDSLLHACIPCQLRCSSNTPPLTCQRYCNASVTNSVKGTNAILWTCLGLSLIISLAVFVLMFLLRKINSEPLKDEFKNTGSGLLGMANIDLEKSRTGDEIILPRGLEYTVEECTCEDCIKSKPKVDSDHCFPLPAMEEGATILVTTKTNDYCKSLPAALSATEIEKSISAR
T2 sequence (A0A2K5UD97 entry or part of it): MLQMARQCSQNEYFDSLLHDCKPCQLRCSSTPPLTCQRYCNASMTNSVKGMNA

Row | Binder | Kd [1] [nM] | koff [1] [s⁻¹] | kon [1] [M⁻¹ s⁻¹] | t1/2 [1] [min] | Kd [2] [nM] | T ½ [2] [min] | kon [2] [M⁻¹ s⁻¹] | Kd [3] [nM] | T ½ [3] [min] | koff [3] [s⁻¹] | kon [3] [M⁻¹ s⁻¹] | koff [4] [s⁻¹]
1 | B1 | 0.059 | 6.2e-05 | 1.1e+06 | 187 | – | – | – | – | – | – | – | –
2 | B2 | – | – | – | – | 25.9 | 0.11 | 3.97e+06 | 1.28 | 17.2 | 0.00067 | 525000 | 0.103
3 | B3 | 0.053 | 0.00014 | 2.6e+06 | 84 | – | – | – | – | – | – | – | –
